B1: library; numbered along this chain (parent)
chain: MEVVDPQQLGMFTEGELMSVGMDTFIHRIDSTEVIYQPRRKRAKLIGKYLMGDLLGEGSYGKVKEVLDSETLCRRAVKILKKKKLRRIPNGEANVKKEIQLLRRLRHKNVIQLVDVLYNEEKQKMYMVMEYCVCGMQEMLDSVPEKRFPVCQAHGYFCQLIDGLEYLHSQGIVHKDIKPGNLLLTTGGTLKISDLGVAEALHPFAADDTCRTSQGSPAFQPPEIANGLDTFSGFKVDIWSAGVTLYNITTGLYPFEGDNIYKLFENIGKGSYAIPGDCGPPLSDLLKGMLEYEPAKRFSIRQIRQHSWFRKKHPPAEAPVPIPPSPDTKDRWRSMTVVPYLEDLHGADEDEDLFDIEDDIIYTQDFTVPGQVPEEEASHNGQRRGLPKAVCMNGTEAAQLSTKSRAEGRAPNPARKACSASSKIRRLSACKQQ

Variants of: B1
Test: STK11 functional score (HeLa growth suppression), rescaled enrichment; synonymous median = 1, nonsense median = 0 (normalised score)
Conditions: with HeLa; variant type: missense
How it was run: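 Functional scores are post/pre-selection log ratios corrected to wild type, rescaled to synonymous and nonsense medians, merged over codons and replicate transfections, and given bootstrapped error. They come from POPCode libraries of codon-optimised STK11 integrated by Bxb1 at an AAVS1 landing pad in HeLa, three regions each transfected three times, with BFP-negative, mCherry-positive integrants sorted by FACS and tiled gDNA amplicons sequenced on NextSeq.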

STK11 functional score, by site and new letter:
S334: L 1.24 | R 0.671 | Y 1.55 | N 1.58 | P 1.43 | I 0.935 | F 1.1 | H 1.05 | A 0.943 | G 1.35 | E 1.53 | C 0.325 | M 1.05 | V 1.31 | T 1.18 | Q 1.53 | D 1.45 | W 0.649
Y340: D 0.511 | A 1.56 | S 1.3 | C 1.63 | I 0.334 | K 1.6 | F 1.04 | L 1.59 | N 1.03 | T 1.58 | V 1.6
L344: R 1.46 | V 1.42 | A 1.51 | K 1.59 | F 0.831 | I 1.13 | D 1.46 | H 1.14 | G 0.8 | S 1.43 | W 1.54 | Y 0.904 | E 1.28 | C 1.12 | T 1.56
S325: P 1.51 | Q 1.42 | T 1.17 | R 1.58 | W 0.629 | Y 0.029 | V 0.786
R331: H -0.127 | C 1.38 | Y 1.35 | A 0.000385 | N 1.35 | V 1.13 | E 1.12 | S 1.32 | I 1.16 | D 1.24 | G 1.41 | P 1.54 | L 1.2 | W 1.49
T336: V 1.49 | G 1.15 | D 0.148 | P 1.18 | H 1.59 | C 1.27 | S 1 | I 1.35 | Y 1.17 | N 0.774 | L 1.39 | R 1.54 | E 1.61 | A 1.52 | M 0.732 | W 1.64 | K 1.54
D343: M 1.57 | P 1.33 | N 1.02 | T 1.53 | I 1.57 | H 0.726 | C 1.44 | R 1.11 | V 1.21 | E 1.45 | Y 1.29 | F 1.32 | L 0.93 | W 1.55 | A 1.47 | Q 0.992 | S 1.35 | G 1.41
D348: A 1.54 | G 1.26 | H 1.18 | I 1.41
V338: A 1.56 | R 0.93 | L 1.39 | G 1.18 | I 1.47 | W 0.683 | S 1.59 | D 1.39 | Q 1.54 | C 0.965 | P 1.54 | T 1.6
P326: E 1.57 | S 1.36 | G 1.52 | L 1.34 | C 1.34 | H 0.87 | M 1.45 | R 1.53 | A 0.8 | Y 0.263 | V 0.813
R333: F 0.85 | I 1.49 | L 1.32 | K 1.61 | G 1.47 | Y 1.55 | P 1.64 | A 1.28 | S 1.55 | D 1.62 | V 1.15 | H 1.05
E342: F 1.14 | K 1.61 | N 1.4 | Q 1.23 | M 1.46 | S 1.39 | C 1.21 | I 1.42 | W 1.19 | D 0.774 | R 1.54 | L 1.26 | A 1.11 | G 1 | V 1.46 | T 1.58 | P 1.53 | Y 1.38
K329: Y 1.15 | S 0.673 | I 1.25 | Q 1.1 | L 1.42 | P 1.47 | M 1.55 | A 1.58 | F 1.18 | R 0.535 | E 1.32 | W 0.742 | G 1.35 | N 1.36 | D 1.56
D330: Q 0.163 | M 1.58 | L 1.59 | N 1.44 | G 1.23 | C 1.33 | T 1.59 | H 0.985 | I 1.33 | A 1.18 | E 0.786 | S 1.47 | V 1.46 | R 1.47
H345: M 1.54 | P 1.29 | R 1.58 | Y 1.12 | F 1.41 | G 1.49 | V 1.22 | C 1.2 | A 1.56 | D 1.27 | W 1.56 | T 1.57 | L 1.2 | I 1.44 | S 1.18
V337: I 1.48 | S 0.723 | G 1.13 | C 1.15 | N 1.54 | Y 0.9 | T 1.61 | L 0.924 | F 0.545 | R 0.662 | W 0.54 | D 1.2 | P 1.58 | A 1.24 | K 1.53
T328: W 1.59 | A 1.62 | D 1.5 | H 1.52 | P 1.57 | E 1.5 | N 0.554 | R 1.5 | I 1.29 | L 1.03 | V 1.36 | S 1.39
D327: H 1.21 | I 1.6 | L 1.55 | R 1.61 | S 1.58 | V 1.31 | T 1.6 | G 0.999 | Y 1.36 | C 1.27 | W 1.57 | A 1.28 | P 1.59 | N 1.3
P339: G 0.73 | M 1.62 | A 1 | D 1.55 | R 1.16 | W 1.6 | V 0.729 | E 0.55 | Y 1.21 | I 1.52 | Q 1.52 | C 1.59 | S 1.42 | L 0.979 | N 0.366
M335: H -0.482 | D 0.605 | P 1.5 | W 0.367 | Y 1.32 | A 1.51 | C 1.36 | I 1.18 | S 1.53 | Q 1.01 | L 1.03 | T 1.46 | E 1.33 | R 1.46 | G 1.55 | V 1.42 | F 1.35 | K 1.03
G346: I 1.18 | F 1.29 | A 1.57 | D 0.435 | Q 1.61 | C 1.22 | E 1.35 | R 1.56 | S 1.48 | P 1.61 | V 0.838 | K 1.61 | N 1.6 | Y 1.57 | T 1.62 | L 1.38 | H 1.6 | M 1.58
A347: V 1.23 | T 1.33 | P 1.21 | G 1.12 | M 1.54 | Y 1.34 | F 1.37 | W 1.59 | S 1.42 | L 1.46 | I 1.52 | H 0.00438 | R 1.54
W332: M 1.42 | E 1.61 | R 1.55 | Q 1.55 | A 1.56 | V 1.59 | S 1.21 | P 1.63 | C 0.361 | L 1.55 | G 1.55
L341: M 1.63 | C 1.38 | D 1.6 | E 1.55 | W 1.25 | A 1.51 | H 0.315 | I 1.56 | T 1.29 | N 1.52 | G 1.46 | F 0.562 | V 1.33 | R 1.21 | Q 1.59 | S 0.93 | P 1.54
